In PMC5931534:

Legend:
calmodulin (CaM) [1] = target: calmodulin (CaM) (UniProt P62157); experiment: ELISA; 96-well MaxiSorp plates coated with 1 ug CaM at 4 C overnight, blocked with 4% BSA; 80 ng DAPK2 for 15 min at 30 C; detected with anti-DAPK2 antibody, HRP secondary and ABTS
calmodulin (CaM) [2] = target: calmodulin (CaM) (UniProt P62157)

Sequence of FLAG-DAPK2 S289D (Q9UIK4 whole entry, stated change not applied): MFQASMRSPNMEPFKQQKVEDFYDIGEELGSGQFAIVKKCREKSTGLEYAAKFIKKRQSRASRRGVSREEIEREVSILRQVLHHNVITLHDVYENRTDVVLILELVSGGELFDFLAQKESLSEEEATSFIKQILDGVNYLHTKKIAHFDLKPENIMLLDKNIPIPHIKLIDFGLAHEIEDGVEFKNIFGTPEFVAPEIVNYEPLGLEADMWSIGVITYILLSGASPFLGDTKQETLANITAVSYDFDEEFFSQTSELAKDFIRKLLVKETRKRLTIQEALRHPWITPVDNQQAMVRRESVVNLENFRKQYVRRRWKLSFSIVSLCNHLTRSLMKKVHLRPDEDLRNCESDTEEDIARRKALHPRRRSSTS
Sequence of FLAG-DAPK2 S289A (Q9UIK4 whole entry, stated change not applied): as above

Substance “DAPK2 S289D (ELISA CaM binding assay) (from UniProt Q9UIK4-1 1-370) (enzyme)” has a fold lower ELISA signal than DAPK2 WT (calmodulin (CaM) [1]) of 5 fold.

In the case of “FLAG-DAPK2 S289A (from UniProt Q9UIK4-1 1-370) (enzyme)”, the fold induction of the catalytic activity (MLC phosphorylation, in vitro kinase assay) upon addition of Ca2+/CaM against EGTA (calmodulin (CaM) [2]) is reported as 5.4 fold.

With “FLAG-DAPK2 S289D (from UniProt Q9UIK4-1 1-370) (enzyme)” the fold induction of the catalytic activity (MLC phosphorylation, in vitro kinase assay) upon addition of Ca2+/CaM against EGTA (calmodulin (CaM) [2]) was 1.6 fold.
